Data reported in patent publication US20130095071A1, “METHOD OF TREATING OR PREVENTING HEARING LOSS” (Audigen Inc., priority 2009, published 2013).

How the values were obtained:
[1] = test system: cochlear hair cells; assay: Enzyme facilitated cochlear gene transfection with AAV through round window membrane; assay type: in vivo, guinea pig; conditions: after digestion of RWM
Method: (§1) The reaction time was 10 minutes.
For inner ear gene transfection, a piece of gelfoam (1-2 mm^3) was placed gently on RWM. 5 ul AAV solution was applied to the gelfoam. The cochlea was taken out for cochlea immunostaining against GFP 2-4 weeks after the surgical application of AAV vectors.
The transfection is through intact round window membrane (RWM). Under appropriate anesthesia, a cut of 2 cm is made posterior to the earlap and the soft tissue is distracted to expose the mastoid. The round window of the guinea pig is exposed by drilling a small hole of 2-3 mm in diameter on the mastoid. Solution of collagenase II is freshly prepared at concentration of 150 units/ml. With the help of a microinjection pump, a total of 10 μl enzyme solution is applied to the round window niche at a flow rate of 10 nl/sec. After reaction time of 10 minutes, residual enzyme solution is sucked out first using suction pump and then use gelfoam. […] Hearing status is evaluated using audiotory brainstem response (ABR).
The transfection is evaluated 2 weeks after the surgery. […] GFP positive hair cells are counted along the length of the cochlear duct. […]
A post-auricular approach was used to expose the tympanic bony bulla. […] The duration for the digestive treatment varied from 5 to 10 minutes and the quantity of the digestive solution 5 to 10 μl. […]

[2] = SEM/TEM examination of round window membrane after enzyme digestion
Method: Under appropriate anesthesia, the round window of the guinea pig was surgically exposed and inspected visually under a surgical microscope. Freshly prepared collagenase solution of 2-3 ul was applied to the round window niche with the help of a microinjection pump. The reaction time was 10 minutes. The residual solution was then sucked out and the RWM was washed with saline. The collagenase was used at a concentration of between 50 unit/ml to 200 unit/ml. In one example, the concentration used was 150 unit/ml. In the example provided here, the collagenase was collagenase from Clostridium histolyticum, Type II (available from Sigma).
To evaluate the damage of the digesting solution on RWW, the animal was killed immediately after the digestion and the cochleae were taken out and fixed with standard protocol for electronic microscopy. To evaluate if the damaged RWM heals spontaneously, some other animals were allowed to survive for 3 weeks before the RWMs were taken for examination.
Under deep anesthesia with an overdose of pentobarbital (100 mg/kg), the animal was decapitated and the temporal bone was rapidly removed and the cochlea extracted. To examine the RWM, the cochlea was immersed into a fixative of 2.5% glutaraldehyde overnight at 4° C., and post fixed in 2% OsO4 for 2 hours. […]

[3] = Safety of enzyme digestion of RWM: ABR before and after surgery; assay type: in vivo, guinea pig; conditions: 12 ears, 2-4 weeks after surgery
Method: as §1
ABR was tested in animals underwent gene transfection before and just before the animal was killed for morphology.
The transfection is through intact round window membrane (RWM). Under appropriate anesthesia, a cut of 2 cm is made posterior to the earlap and the soft tissue is distracted to expose the mastoid. The round window of the guinea pig is exposed by drilling a small hole of 2-3 mm in diameter on the mastoid. Solution of collagenase II is freshly prepared at concentration of 150 units/ml. With the help of a microinjection pump, a total of 10 μl enzyme solution is applied to the round window niche at a flow rate of 10 nl/sec. After reaction time of 10 minutes, residual enzyme solution is sucked out first using suction pump and then use gelfoam. A piece of gelfoam (2-3 mm^3) is placed upon RWM and then 5 μl AAV-GFP is applied to the gelfoam. The hole of mastoid is covered by suturing the soft tissue. Hearing status is evaluated using audiotory brainstem response (ABR).

In the case of collagenase, the “permeability of RWM to AAV” value [1] was “makes RWM permeable to AAV”, the “damage to RWM (SEM, TEM)” value ([2]; 3 weeks after the treatment) was “no difference from normal control” and the “damage to RWM (SEM, TEM)” value ([2]; immediately after the treatment) was “causes damage to the epithelia facing middle ear”. The ABR threshold shift ([3]; 32, 48 kHz) was “less than 15 dB” and the hearing loss ([3]; other frequencies tested) was “no hearing loss”.
